Source: patent US20230210940A1 (published 2023)
No end group written: not given here. *: point of attachment. FITC = O=C1OC2(c3ccc(O)cc3Oc3cc(O)ccc32)c2ccc(NC(=S)*)cc21; Ahx = NCCCCCC(=O)O

Biological target: T1, CD13 (human, UniProt P15144 2-967)
T1 construct: whole, on cells; Endogenous CD13 on the cell membrane, detected with PE-labeled anti-human CD13 antibody clone WM-15; also called human CD13
Experiment: Example 2 incubated with HT-1080 cells, anti-FITC immunoprecipitation, Western blot with anti-CD13 antibody WM-15
Protocol: Example 2 (80 μg/400 μL) reacted to HT-1080 cells (40 million cells) at 4° C. for 2 hours. The cells were then washed with PBS, and centrifuged. The centrifuged cells were dissolved in 1,000 μL of IP Lysis/Wash buffer (Thermo Fisher Scientific) with Halt Protease & Phosphatase inhibitor Single-Use Cocktail, ETDA-Free (Thermo Fisher Scientific) (10 μL) at 4° C. for 5 minutes. It was centrifuged at 4° C. for 10 minutes and the supernatant was collected. The supernatant was adjusted to be 1 mg in amount of protein and 80 μL of A/G agarose was added to it. The mixture was stirred at 4° C. for 1 hour and then centrifuged for 1 minute. Thus, a pre-treatment solution was obtained. 10 μg of IgG Fraction Monoclonal Mouse Anti-Fluorescein (FITC) (Jackson ImmunoResearch) or 10 μg of Mouse IgG Isotype Control (Thermo Fisher Scientific) was each added to the pre-treatment solution (1 mg/600 μL), and the mixtures were shaken at 4° C. overnight. Subsequently, 20 μL of A/G agarose was added and the mixtures were shaken at 4° C. for 2 hours. The mixtures were washed three times with the wash buffer described above and 20 μL of 2×Non-reducing Lane Marker Sample Buffer (Thermo Fisher Scientific) was added to the A/G agaroses. […]
The 10% solution used in immunoprecipitation was loaded to the left lane of FIG. 3. […] CD13 was not detected on the right lane, but CD 13 was detected on the center lane.

T1 sequence (P15144 2-967): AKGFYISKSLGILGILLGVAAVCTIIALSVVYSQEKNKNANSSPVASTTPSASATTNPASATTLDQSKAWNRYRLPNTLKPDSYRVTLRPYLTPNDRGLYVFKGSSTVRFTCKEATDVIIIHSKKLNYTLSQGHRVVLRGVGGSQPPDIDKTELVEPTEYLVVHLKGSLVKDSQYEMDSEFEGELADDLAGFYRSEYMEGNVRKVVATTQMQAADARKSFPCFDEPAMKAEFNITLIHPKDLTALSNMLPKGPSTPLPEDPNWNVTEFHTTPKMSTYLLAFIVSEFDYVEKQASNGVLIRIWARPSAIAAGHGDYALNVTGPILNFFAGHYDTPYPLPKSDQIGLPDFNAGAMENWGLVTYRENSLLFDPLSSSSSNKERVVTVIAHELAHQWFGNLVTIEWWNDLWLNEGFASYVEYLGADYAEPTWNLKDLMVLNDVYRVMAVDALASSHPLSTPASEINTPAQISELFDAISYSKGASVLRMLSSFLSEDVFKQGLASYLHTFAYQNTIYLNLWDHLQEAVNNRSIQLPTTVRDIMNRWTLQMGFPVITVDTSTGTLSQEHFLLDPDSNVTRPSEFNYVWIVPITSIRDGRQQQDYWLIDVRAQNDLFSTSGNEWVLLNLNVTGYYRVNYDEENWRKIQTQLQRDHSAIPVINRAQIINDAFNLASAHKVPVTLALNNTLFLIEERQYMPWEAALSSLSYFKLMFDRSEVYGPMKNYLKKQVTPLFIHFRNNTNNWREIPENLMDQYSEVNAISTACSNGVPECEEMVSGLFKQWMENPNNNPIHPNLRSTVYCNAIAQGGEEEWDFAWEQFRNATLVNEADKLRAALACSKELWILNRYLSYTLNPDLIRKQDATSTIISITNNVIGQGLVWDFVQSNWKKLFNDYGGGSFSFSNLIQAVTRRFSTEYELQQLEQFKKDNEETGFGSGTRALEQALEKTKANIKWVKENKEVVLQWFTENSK

**Q.** Does {FITC-Ahx}-KDNRGNLLQCVCTGNGRGEWKC (cysteine pairing not given here) bind?
**A.** Result: binds
